According to patent publication US20260209387A1, “SINGLE-DOMAIN ANTIBODY FOR INHIBITION OF NEUTROPHIL ELASTASE ACTIVITY” (UNIVERSITE DE LIEGE, priority 2023, published 2026):
Peptide text beside a SMILES is read from it. * marks the point of attachment. MeOSuc = COC(=O)CCC(=O)*; CH2Cl = ClC*

Tests used:
hNE = biological target: T1, hNE (Homo sapiens, UniProt P08246); experiment: hNE inhibition, hydrolysis of elastin (Elastin-CongoRed); format: biochemical
T1 construct: purchased Elastin Products Company (EPC)
T1 sequence (P08246 30-247): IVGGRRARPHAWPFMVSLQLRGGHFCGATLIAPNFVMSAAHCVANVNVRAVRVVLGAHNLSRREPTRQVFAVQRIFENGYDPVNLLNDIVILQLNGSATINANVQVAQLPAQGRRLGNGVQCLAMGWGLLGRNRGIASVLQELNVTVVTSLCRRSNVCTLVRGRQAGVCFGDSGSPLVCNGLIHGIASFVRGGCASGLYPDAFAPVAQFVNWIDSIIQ
Method: 1.6.2. Inhibition of the hydrolysis of elastin, a natural substrate of hNE. […] The samples were incubated for 16 hours at 37° C. with orbital shaking (900 rpm). The samples were then centrifuged at 90′000 g for 30 minutes at 4° C. to separate the insoluble Elastin from the digested and soluble molecule fragments. The soluble fraction was transferred into a 384-wells clear plate and the absorbance of Congo-red was measured at 495 nm in a SpectraMax M2e Microplates Reader (Molecular Devices, California, USA). The absorbance of the samples at different inhibitor: hNE molar ratios was compared to that measured in the absence of inhibitor, to determine the residual hNE activity. A sample of Elastin-Congo red without elastase was used as blank.

[1] = system: hNE-induced alveolar-capillary damage; experiment: hNE-induced acute lung injury mouse model; format: in vivo, mice; conditions: nasal instillation 15 min prior to hNE 25 μg; molar ratio Nb/HNE 4/1
Method: The in vivo efficacy of NbE201 was determined using a mouse model of acute lung injury induced by nasal instillation of HNE (L agente et al., 2009, American Thoracic Society International Conference Abstracts. (American Thoracic Society), A5668. doi: 10.1164/ajrccm-conference.2009.179.1_MeetingAbstracts.A5668). […]
It was determined with the hemoglobin assay kit (Sigma) and performed according to the manufacturer's instructions. […] A measurement of the optical density at 400 nm allowed the quantification of this stable complex. […]
Histological sections of the lung were digitized using a panoramic scan 2 (3[…]). […] This semi-automated analysis made it possible to quantify the damaged alveolar surface. […] The percentage of injured surface was determined by the ratio: % injured area=(injured area/alveolar area)×100

[2] = biological target: T2, human neutrophil elastase (human, UniProt P08246 30-247, glycans (NAG-NAG-FUC) at N109 and N204, chymotrypsinogen numbering, seen in the crystal); experiment: capture of hNE on streptavidin magnetic beads via biotinylated NbE34 (phage panning)
T2 construct: Purified hNE bought from Elastin Products Company; In the crystal, density is defined for I1 to Q218; also called hNE; HNE
T2 sequence: T1 sequence (P08246 30-247)
Method: The recovery of the beads after each step was carried out on a magnetic stand for 1.5 ml Eppendorf tubes for two minutes. All the incubation steps took place at room temperature and in a shaker with vertical rotation. Washing steps were carried out with 500 μl phosphate-buffered saline solution with a detergent solution of 0.01% (PBST, PBS with 0.01%, % v/v, Tween 20). First, 0.04 mg of beads were functionalized with 4 μg of chemically biotinylated NbE34 in 1 ml of PBS. After 5 washings, the beads were incubated with 5 μg of hNE in 500 μL of PBS. A negative control tube with magnetic beads functionalized with NbE34 but without hNE was also prepared. Then, the beads in each tube were incubated in 500 μl of blocking buffer. The blocking buffer was casein 0.1% (% w/v), bovine serum albumin 0.1% (% w/v) or protein free-blocking buffer (ThermoFisher Scientific, United States) in rounds 1, 2 and 3, respectively. In the next step, 2×10¹¹ phages from the library were incubated in the positive and the negative tubes and incubated for 1 hour. The beads were washed at least 10 times with PBST (PBS containing 0.05%, % v/v, Tween 20), previous to the elution of phages with 200 μl of triethanolamine (TEA) pH 11 for 10 minutes and neutralization with 200 μl of trisaminomethane hydrochloric acid (Tris-HCl) 1M pH8. […]

[3] = Aggregates detection by Nanoparticle Tracking Analysis; format: physicochemical; conditions: 0.25 mg/ml, after nebulization
Method: 2.3.5 Aggregates Detection. Protein aggregates were visualized by Nanoparticle Tracking Analysis (NTA) (ZetaView, 220 Twin Laser, Particle Metrix, Ammersee, Germany), a technique used for measuring single particle size and concentration. NbE201, NbE201-PEG10 and NbE201-PEG40 solutions (0.25 mg/ml) were analysed before and after nebulization. 11 positions were analysed for which following parameters were used: • Laser wavelength: 488 nm • Scatter, no fluorescence • Sensitivity: 80 • Shutter: 100

[4] = Physical stress (nebulization, agitation, freeze/thaw): concentration by A280 nm before/after centrifugation; format: physicochemical; conditions: for Initial concentration percentage after centrifugation: 10 000 g 10 min
Method: A 0.25 mg/ml solution of NbE201, NbE201-PEG10 or NbE201-PEG40 was prepared and divided in order to apply the following conditions: control, 1 or 4 h of agitation with a magnetic bar, nebulization, 5 or 10 freeze/thaw cycles.
2.3.1 Stability towards agitation. 100 μl of a 0.25 mg/ml ISVDs solution were agitated in a 1 ml glass vial with a 2×5 mm magnetic bar (VWR, Radnor, USA) at 200 rpm during 1 or 4 hours.
2.3.2 Stability towards Nebulization. 300 μl of a 0.25 mg/ml ISVDs solution were nebulized with a MeSH nebulizer (InnoSpire Go, Phillips, Amsterdam, The Netherlands).
2.3.3 Stability towards freezing/thawing. 100 μl of a 0.25 mg/ml ISVDs solution underwent 5 or 10 freeze/thaw (F/T) cycles. Freezing was performed in a −20° C. freezer and thawing was performed at RT.
2.3.4 Concentration measurements. Concentrations and UV spectra were measured by spectrophotometry (NanoDrop 2000/2000c spectrophotometer, ThermoFisher). Concentrations were determined based on the absorbance at 280 nm. NbE201 and NbE201-Cter mass extinction coefficients applied to the measurements were 1.888 and 1.716 (mg/mL)^−1 cm^−1 respectively. Regarding the ISVDs exposed to physical stresses, the concentration was read before and after centrifugation at 10 000 g at 4° C. for 10 min.

[5] = biological target: T3, proteolytic (elastase) activity of cystic fibrosis patient sputa (Homo sapiens, UniProt P08246); experiment: Sputum proteolytic activity inhibition, cystic fibrosis sputa; format: biochemical; conditions: exposure time 0
T3 construct: Sputa from patients with cystic fibrosis, COPD or ciliary diskenisia above 18 years old were collected; from tissue; host or cells: expectorated sputum of patients with cystic fibrosis, COPD or ciliary dyskinesia
T3 sequence (P08246 30-267): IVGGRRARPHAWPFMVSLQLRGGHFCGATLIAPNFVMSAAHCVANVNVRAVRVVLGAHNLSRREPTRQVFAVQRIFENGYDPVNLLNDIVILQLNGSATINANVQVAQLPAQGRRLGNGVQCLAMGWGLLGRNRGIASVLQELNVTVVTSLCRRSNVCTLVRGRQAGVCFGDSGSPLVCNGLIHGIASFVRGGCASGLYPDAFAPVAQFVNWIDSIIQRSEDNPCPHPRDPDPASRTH
Method: 2.2.2 Evaluation of the proteolytic activity inhibition in CF, COPD and ciliary diskenisia sputa. […] Sputa collection procedures were evaluated by the local ethic committee (comité d'Ethique Hospitalo-Facultaire des Cliniques universitaires Saint-Luc) and approved under the Belgian registration number B4032021000071.
Sputum proteolytic activity was assessed by following with a spectrophotometer the absorbance at 410 nm of suc-Ala-Ala-Pro-Val-pNA degradation, the chromogenic hNE substrate. Sputa were classified as mucoid, muco-purulent or purulent (Serisier et al., 2009, Respir Res, 10 (1): 63. doi: 10.1186/1465-9921-10-6). According to the experiment, 10 to 20 mg of sputum were weighted in a 96-well plate. ISVDs were then added to the sputum samples and pre-incubated at 37° C. during different periods of time. The hNE substrate was diluted to a concentration of 1 mM in a tris buffer (0.1M tris, 0.5M NaCl, 0.01% Sodium azide (NaN3), pH 7.5) and 50 μl of this solution were added to the wells. The substrate degradation was followed during 50 min. […] Slopes were then calculated from the regression line drawn from the absorbance measurements and were expressed as a percentage of the sputum proteolytic activity without ISVDs.

## COC(=O)CCC(=O)N[C@@H](C)C(=O)N[C@@H](C)C(=O)N1CCC[C@H]1C(=O)N[C@H](C(=O)CCl)C(C)C [EI3, methyl 4-[[(2S)-1-[[(2S)-1-[(2S)-2-[[(3S)-1-chloro-4-methyl-2-oxopentan-3-yl]carbamoyl]pyrrolidin-1-yl]-1-oxopropan-2-yl]amino]-1-oxopropan-2-yl]amino]-4-oxobutanoate, reference compound] (MeOSuc-AAPV-CH2Cl)
hNE; [inhibitor]:[hNE] ratio 15
  inhibition of hNE activity, elastin hydrolysis: 95%

## CC(C)(C)C(=O)Oc1ccc(S(=O)(=O)Nc2ccccc2C(=O)NCC(=O)O)cc1 [Sivelestat, reference compound]
hNE; [inhibitor]:[hNE] = 50
  inhibition of hNE activity, elastin hydrolysis: 40%

## AAT: endogenous glycoprotein, covalent natural inhibitor of neutrophil elastase
[1]
  protection against hNE-induced alveolar-capillary damage: protects the lungs from developing alveolar-capillary damage

B1: NbE34 (VHH)
VHH: QVQLQESGGGLVQPGGSLRLSCAASGFTLDYHAIGWFRQAPGKEREGVSCISSSGGRADYADSVKGRFTISRDNAKNTVYLQMNSLKPEDTAVYYCATRCAVVGGTYYYGMDYWGKGTQVTVSS
modifications: chemically biotinylated (sites not given)
notes: It was used to capture hNE on streptavidin beads for the panning; also called biotinylated capture ISVD NbE34
[2]
  binding result: binds

B2: NbE201-PEG10: NbE201-Cter (linker SPSTPPTPSPSTPP + C-terminal cysteine) conjugated to linear 10 kDa PEG-maleimide (conjugate)
VHH: QVQLQESGGGLVQAGGSLRLSCVVPGRTISLYRMGWFRQAPGKEREFVAGINWSGDMTDYVDSVKGRFTISRDNAKNTVYLEMNSLKPEDTAIYYCTADPKLLPLADSSYGYWGQGTQVTVSSSPSTPPTPSPSTPPC
[3]
  average counted particles per frame (NTA): far below that threshold
[4]; Agitation (1 h)
  Initial concentration percentage before centrifugation: 98 ± 1%
  Initial concentration percentage after centrifugation: 97 ± 2%
[4]; Agitation (4 h)
  Initial concentration percentage before centrifugation: 100 ± 1%
  Initial concentration percentage after centrifugation: 93 ± 2%
[4]; Control
  Initial concentration percentage before centrifugation: 100 ± 0%
  Initial concentration percentage after centrifugation: 94 ± 2%
[4]; F/T 5x
  Initial concentration percentage before centrifugation: 99 ± 1%
  Initial concentration percentage after centrifugation: 99 ± 1%
[4]; F/T 10x
  Initial concentration percentage before centrifugation: 98 ± 2%
  Initial concentration percentage after centrifugation: 98 ± 1%
[4]; Nebulization
  Initial concentration percentage before centrifugation: 85 ± 2% (***)
  Initial concentration percentage after centrifugation: 85 ± 3%
[5]
  sputum proteolytic activity inhibition at time 0, compared with NbE201: No significant difference
